Assay results reported in patent publication US20250289893A1 (OXFORD UNIVERSITY INNOVATION, published 2025).
One block for each molecule: values may come before it.

Experiments:
[1] = molecular target: T1, human CD1a expressed on cells (human, UniProt P06126 17-327; P61769 21-119); experiment: flow cytometry of ear skin cells of CD1a transgenic mice given isotype control (CD1a : iso), stained with SK9; gated population not named on the sheet; no percent sign printed
T1 construct: also called HEK - CD1a; C1R - CD1a

[2] = molecular target: T1, human CD1a expressed on cells; experiment: flow cytometry of ear skin cells of CD1a transgenic mice given antibody 116 100 µg i.p. on days 0, 2, 4 (CD1a : OX116), stained with SK9 on day 5; no percent sign printed
[3] = molecular target: T1, human CD1a expressed on cells; experiment: flow cytometry of ear skin cells of CD1a transgenic mice given isotype control (CD1a : iso), stained with HI149; gated population not named on the sheet; no percent sign printed
[4] = molecular target: T1, human CD1a expressed on cells; experiment: flow cytometry of ear skin cells of CD1a transgenic mice given antibody 116 100 µg i.p. on days 0, 2, 4 (CD1a : OX116), stained with HI149 on day 5; the cloud lies on the lower edge of the gate; no percent sign printed
[5] = molecular target: T2, Cynomolgus monkey CD1a protein (Cynomolgus monkey); experiment: ELISA, 1 µg/ml antibody
T2 chain: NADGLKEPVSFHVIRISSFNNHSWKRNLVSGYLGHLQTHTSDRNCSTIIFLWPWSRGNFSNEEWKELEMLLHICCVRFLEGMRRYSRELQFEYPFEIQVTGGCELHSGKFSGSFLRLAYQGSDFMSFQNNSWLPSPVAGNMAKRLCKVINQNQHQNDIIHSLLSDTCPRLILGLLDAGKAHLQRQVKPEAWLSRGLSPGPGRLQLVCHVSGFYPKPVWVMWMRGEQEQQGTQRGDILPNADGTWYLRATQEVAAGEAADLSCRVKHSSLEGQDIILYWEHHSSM

[6] = molecular target: T3, human CD1a protein (pool B) (human, UniProt P06126 18-295, limits assumed); experiment: ELISA, 0.0316 µg/ml antibody
T3 construct: Recombinant protein of the ELISA (coated) and the Biacore T200 titration; whole entry named; also called human CD1a pool B; full length CD1a

[7] = molecular target: T3, human CD1a protein (pool B); experiment: ELISA, 10 µg/ml antibody
[8] = molecular target: chimeric CD1a pool B protein [human CD1a lipid binding domain, mouse CD1d Ig domain] (human; mouse) (UniProt P06126); experiment: ELISA, 0.1 µg/ml antibody
[9] = molecular target: Chinese variant CD1a protein (human) (UniProt P06126); experiment: ELISA, 0.1 µg/ml antibody
[10] = molecular target: T2, Cynomolgus monkey CD1a protein; experiment: ELISA, 0.01 µg/ml antibody
[11] = molecular target: T3, human CD1a protein (pool B); experiment: ELISA, 31.6 µg/ml antibody
[12] = molecular target: chimeric CD1a pool B protein [human CD1a lipid binding domain, mouse CD1d Ig domain] (human; mouse) (UniProt P06126); experiment: ELISA, 31.6 µg/ml antibody
[13] = molecular target: T3, human CD1a protein (pool B); experiment: ELISA, 0.316 µg/ml antibody
[14] = molecular target: T2, Cynomolgus monkey CD1a protein; experiment: ELISA, 0.1 µg/ml antibody
[15] = molecular target: T3, human CD1a protein (pool B); experiment: ELISA, 3.16 µg/ml antibody
[16] = molecular target: chimeric CD1a pool B protein [human CD1a lipid binding domain, mouse CD1d Ig domain] (human; mouse) (UniProt P06126); experiment: ELISA, 3.16 µg/ml antibody
[17] = molecular target: T3, human CD1a protein (pool B); experiment: ELISA, 100 µg/ml antibody
[18] = molecular target: chimeric CD1a pool B protein [human CD1a lipid binding domain, mouse CD1d Ig domain] (human; mouse) (UniProt P06126); experiment: ELISA, 100 µg/ml antibody
[19] = molecular target: T2, Cynomolgus monkey CD1a protein; experiment: ELISA, 10 µg/ml antibody
[20] = molecular target: chimeric CD1a pool B protein [human CD1a lipid binding domain, mouse CD1d Ig domain] (human; mouse) (UniProt P06126); experiment: ELISA, 0.316 µg/ml antibody
[21] = molecular target: T3, human CD1a protein (pool B); experiment: ELISA, 1 µg/ml antibody
[22] = molecular target: chimeric CD1a pool B protein [human CD1a lipid binding domain, mouse CD1d Ig domain] (human; mouse) (UniProt P06126); experiment: ELISA, 1 µg/ml antibody
[23] = molecular target: Chinese variant CD1a protein (human) (UniProt P06126); experiment: ELISA, 1 µg/ml antibody
[24] = molecular target: Chinese variant CD1a protein (human) (UniProt P06126); experiment: ELISA, 0.01 µg/ml antibody
[25] = molecular target: chimeric CD1a pool B protein [human CD1a lipid binding domain, mouse CD1d Ig domain] (human; mouse) (UniProt P06126); experiment: ELISA, 0.0316 µg/ml antibody
[26] = molecular target: T3, human CD1a protein (pool B); experiment: ELISA, 0.1 µg/ml antibody
[27] = molecular target: chimeric CD1a pool B protein [human CD1a lipid binding domain, mouse CD1d Ig domain] (human; mouse) (UniProt P06126); experiment: ELISA, 10 µg/ml antibody
[28] = molecular target: Chinese variant CD1a protein (human) (UniProt P06126); experiment: ELISA, 10 µg/ml antibody
[29] = molecular target: T4, Human CD1a/β2m heterodimer (soluble, de-glycosylated) (human, UniProt P61769 21-119); experiment: SPR, OX16-scFv immobilised, CD1a-SM24:1 (sphingomyelin) injected up to 1000 nM; 1:1 specific binding fit; row printed as Kd, unit nM from the legend paragraph 90
T4 construct: Expressed in HEK293S cells with fos-jun zippers, BirA tag and His-tag, which were cleaved off with thrombin; deglycosylated with EndoH; Carries endogenous lipids or a loaded lipid (named under assay); also called CD1a-endo; CD1a-sphingomyelin

[30] = molecular target: T4, Human CD1a/β2m heterodimer (soluble, …); experiment: SPR, OX16-scFv immobilised, CD1a-GD3 (GD3 ganglioside) injected up to 1000 nM; 1:1 specific binding fit; row printed as Kd, unit nM from the legend paragraph 90
[31] = molecular target: T4, Human CD1a/β2m heterodimer (soluble, …); experiment: SPR, OX16-scFv immobilised, CD1a-LPC (lysophosphatidylcholine) injected up to 1000 nM; 1:1 specific binding fit; row printed as Kd, unit nM from the legend paragraph 90
[32] = molecular target: T4, Human CD1a/β2m heterodimer (soluble, …); experiment: SPR, OX16-scFv immobilised on streptavidin chip, CD1a-endo (endogenous lipids) injected up to 1000 nM; 1:1 specific binding fit of response against concentration; row printed as Kd, unit nM from the legend paragraph 90
[33] = molecular target: chimeric CD1a pool B protein [human CD1a lipid binding domain, mouse CD1d Ig domain] (human; mouse) (UniProt P06126); experiment: ELISA on chimeric CD1a (human alpha 1 and alpha 2 domains, murine CD1d alpha 3 domain), size exclusion pool B; antibody concentration not given
[34] = molecular target: Chinese variant CD1a protein (human) (UniProt P06126); experiment: ELISA on coated minor CD1A variant protein; antibody concentration not given
[35] = molecular target: T3, human CD1a protein (pool B); experiment: Biacore, column KD1 of the heterogeneous ligand model; no unit on the sheet or in the legend, M taken from Table 10 of the same Biacore method
[36] = molecular target: T3, human CD1a protein (pool B); experiment: Biacore, column KD2 of the heterogeneous ligand model; no unit on the sheet or in the legend, M taken from Table 10 of the same Biacore method
[37] = molecular target: T4, Human CD1a/β2m heterodimer (soluble, …); experiment: SPR, OX116-scFv immobilised, CD1a-LPC (lysophosphatidylcholine) injected up to 1000 nM; 1:1 specific binding fit; row printed as Kd, unit nM from the legend paragraph 90
[38] = molecular target: T4, Human CD1a/β2m heterodimer (soluble, …); experiment: SPR, OX116-scFv immobilised, CD1a-GD3 (GD3 ganglioside) injected up to 1000 nM; 1:1 specific binding fit; row printed as Kd, unit nM from the legend paragraph 90
[39] = molecular target: T4, Human CD1a/β2m heterodimer (soluble, …); experiment: SPR, OX116-scFv immobilised, CD1a-SM24:1 (sphingomyelin) injected up to 1000 nM; 1:1 specific binding fit; row printed as Kd, unit nM from the legend paragraph 90
[40] = molecular target: T4, Human CD1a/β2m heterodimer (soluble, …); experiment: SPR, OX116-scFv immobilised on streptavidin chip, CD1a-endo (endogenous lipids) injected up to 1000 nM; 1:1 specific binding fit of response against concentration; row printed as Kd, unit nM from the legend paragraph 90

Sequence of chimeric CD1a pool B protein [human CD1a lipid binding domain, mouse CD1d Ig domain] (human; mouse) (P06126 other isoform, or with tags, fused parts or gaps mutant limits assumed): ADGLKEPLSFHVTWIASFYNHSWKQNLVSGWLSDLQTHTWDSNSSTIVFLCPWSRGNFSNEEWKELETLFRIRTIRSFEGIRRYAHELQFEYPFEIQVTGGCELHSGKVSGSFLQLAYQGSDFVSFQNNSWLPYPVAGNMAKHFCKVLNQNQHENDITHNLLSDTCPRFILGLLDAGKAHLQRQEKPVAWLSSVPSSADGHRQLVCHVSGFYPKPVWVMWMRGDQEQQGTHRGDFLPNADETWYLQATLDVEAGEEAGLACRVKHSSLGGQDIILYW
Sequence of Chinese variant CD1a protein (human) (P06126 18-295, stated change not applied): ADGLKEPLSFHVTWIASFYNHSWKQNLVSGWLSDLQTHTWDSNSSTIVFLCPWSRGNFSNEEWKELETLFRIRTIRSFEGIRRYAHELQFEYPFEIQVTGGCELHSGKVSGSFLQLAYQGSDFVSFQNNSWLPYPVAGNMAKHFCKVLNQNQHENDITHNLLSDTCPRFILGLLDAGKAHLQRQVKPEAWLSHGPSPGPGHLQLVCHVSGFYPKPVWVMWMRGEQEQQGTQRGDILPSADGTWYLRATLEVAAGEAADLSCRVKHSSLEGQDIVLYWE
T3 sequence (P06126 18-295 limits assumed): as the sequence (P06126 18-295, stated change not applied) above

B1: OX16 scFv (scFv)
scFv: DAEVQLVESGGGLVKPGGSLKLSCAASGFTFSNYAMSWVRQTPEKRLEWVAAINSNGGSAYYPDTVKDRFTISRDNAKNTLYLQMSSLRSEDTALYYCARRFYYDYGWFAYWGQGTLVTVSSGGGGSGGGGSGGGGSDIVLTQSPASLSASVGETVTITCRASENIDSYLAWYQQKQGKSPQLLVYAATLLADGVPSRFSGSGSGTQYSLKINSLQSEDVARYYCQHYYSSPWTFGGGTKLEIKSGLEVLFQGPGSGLNDIFEAQKIEWHEHHHHHH
notes: SPR: biotinylated on the C-terminal tag and coupled to streptavidin; Crystals: BirA and His-tag cleaved off with 3C protease; also called 16 ScFv full; single chain variable construct of OX16
- Kd [29]: 860 nM
- Kd [30]: 1270 nM
- Kd [31]: 1010 nM
- Kd [32]: 476 nM

B2: OX25 (antibody, V domains shown)
VH: QVQLQQSGPGLVAPSQSLFITCTVSGFSLTTYEINWVRQPPGKGLEWLGVIWTGGSTNYNSALISRLSISKDNSKSLVFLKMNSLQTDDTAIYYCVRTLPYYYAMDYWGQGTSVTVSS
VL: EIVLTQSPALMAASPGEKVTITCSVSSSISSSNLHWYQQKSGTSPKPWIYGTSNLASGVPVRFSGSGSGTSYSLTISSMEAEDAATYYCQQWSSYPPTFGSGTKLEIK
notes: also called antibody 25; Ab 25
- optical density (ELISA) [33]: 0.11
- optical density (ELISA) [34]: 0.736
- Kd [35]: 15 nM
- Kd [36]: 2.1 nM

B3: OX116 scFv (scFv)
scFv: DAQSVEESGGRLVTPGTPLTLTCTVSGFSLSNYAMSWVRQAPGKGLEWIGIIYTTGFTYYASWVKGRFTISKTSTTVDLKITSPTTEDTATYFCARGLATYVSPPTRLDLWGQGTLVTVSSGGGGSGGGGSGGGGSAQVLTQTPSPVSAAVGGTVTINCQASQSIYNSKNLAWYQQKPGQPPKLLIYSASTLASGVPSRFKGSGSGTQFTLTISDLESDDAATYYCQGEFSCSSVDCATFGGGTEVVVKSGLEVLFQGPGSGLNDIFEAQKIEWHEHHHHHH
notes: SPR: biotinylated on the C-terminal tag and coupled to streptavidin; Crystals: tags cleaved off with 3C protease; also called OX116 Ab fragment
- Kd [37]: 1520 nM
- Kd [38]: 329 nM
- Kd [39]: 529 nM
- Kd [40]: 483 nM

Continued, values first:

- CD1a+ (gate frequency) [1]: 84.9%
- CD1a+ (gate frequency) [2]: 87.4%
Molecule: SK9 (antibody)

- CD1a+ (gate frequency) [3]: 82.2%
- CD1a+ (gate frequency) [4]: 46.6%
Molecule: HI149 (antibody)

- Optical Density (OD) [5]: 0.07 OD
- Optical Density (OD) [6]: 0.06 OD
- Optical Density (OD) [7]: 0.07 OD
- Optical Density (OD) [8]: 0.08 OD
- Optical Density (OD) [9]: 0.08 OD
- Optical Density (OD) [10]: 0.06 OD
- Optical Density (OD) [11]: 0.06 OD
- Optical Density (OD) [12]: 0.08 OD
- Optical Density (OD) [13]: 0.07 OD
- Optical Density (OD) [14]: 0.07 OD
- Optical Density (OD) [15]: 0.06 OD
- Optical Density (OD) [16]: 0.1 OD
- Optical Density (OD) [17]: 0.07 OD
- Optical Density (OD) [18]: 0.08 OD
- Optical Density (OD) [19]: 0.09 OD
- Optical Density (OD) [20]: 0.09 OD
- Optical Density (OD) [21]: 0.07 OD
- Optical Density (OD) [22]: 0.09 OD
- Optical Density (OD) [23]: 0.08 OD
- Optical Density (OD) [24]: 0.08 OD
- Optical Density (OD) [25]: 0.09 OD
- Optical Density (OD) [26]: 0.06 OD
- Optical Density (OD) [27]: 0.08 OD
- Optical Density (OD) [28]: 0.14 OD
Molecule: control rabbit IgG antibody
